Laboratory results published in the supplement of paper PMC9732359.
± gives the uncertainty stated by the source.

Assay: protein stability index of a GFP-peptide fusion (yeast GPS) (PSI 1-4); higher = more stable; sorted into four equal gates, so the index is relative within each strain
Settings: pdr5∆
Procedure, shortened: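 The protein stability index of a peptide was calculated by multiplying its read frequency in each gate by that gate's number and adding the products. The peptides were tiled 17-residue stretches of yeast proteins, fused downstream of GFP on a Cherry-expressing plasmid and carried in yeast as a pooled library. Mid-log cultures in leucine-free medium were sorted into four equal gates by GFP/Cherry ratio, and each gate's plasmids were PCR-amplified and Illumina-sequenced.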

Q: For MSNIVGIEYNRVTNTTS [RPC40], which protein stability index is on record?
A: 3.33 ± 0.13

Q: For MSQYQSTMKENKDLSEL [YIL149C/MLP2], which protein stability index is on record?
A: 3.12 ± 0.11

Q: For MSRDAPIKADKDYSQIL [RPN5], which protein stability index is on record?
A: 2.44 ± 0.078

Q: With MSSVQSKILSQAPSELE [RPS7B] as the sequence, how does the protein stability index read?
A: 2.72 ± 0.083

Q: With MSTELTVQSERAFQKQP [RPS11A] as the sequence, how does the protein stability index read?
A: 2.97 ± 0.099

Q: Which protein stability index does the source give for MSVPAIAPRRKRLADGL [DIS3] here?
A: 3.18 ± 0.11

Q: With MTTFYKCVNCGHRWKEN [RPC11] as the sequence, how does the protein stability index read?
A: 2.66 ± 0.071

Q: With MTVKLESITYQKIMILQ [RGR1] as the sequence, how does the protein stability index read?
A: 1.73 ± 0.068

Q: With MTVNDQPIEKNGDKMPL [YJR042W/NUP85] as the sequence, how does the protein stability index read?
A: 3.04 ± 0.068

Q: With MVLEATVLVIDNSEYSR [RPN10] as the sequence, how does the protein stability index read?
A: 1.72 ± 0.12

Q: For MVNTQQPIVTGTSVISM [PRE4], which protein stability index is on record?
A: 2.69 ± 0.23

Q: For MVPKRSTIITKAINQEL [YCS4], which protein stability index is on record?
A: 1.88 ± 0.062

Q: For NAEKTGKRQVLIRPSSK [RPS22A], which protein stability index is on record?
A: 3.26 ± 0.12

Q: Which protein stability index does the source give for NAEKTGKRQVLLRPSSK [RPS22B] here?
A: 2.93 ± 0.055

Q: With NAGTDIVMEDHGVLQGT [MED1] as the sequence, how does the protein stability index read?
A: 3.06 ± 0.1

Q: Which protein stability index does the source give for NAIQTEVYGINEESTNE [SIR4] here?
A: 3.03 ± 0.3

Q: Which protein stability index does the source give for NAKRSHMMKRWGYQMVW [POP1] here?
A: 2.38 ± 0.056

Q: Which protein stability index does the source give for NALWILVDLVSHFSPDI [ITC1] here?
A: 1.56 ± 0.079

Q: With NANTVFSERAAMFAALQ [SWI1] as the sequence, how does the protein stability index read?
A: 2.32 ± 0.043

Q: For NASDALKGRVVEVCLAD [RPS1B], which protein stability index is on record?
A: 3.33 ± 0.057

Q: For NASLTIEDEDEPFNAGI [SMC1], which protein stability index is on record?
A: 3.15 ± 0.12

Q: For NATVVDSFKYEPLAPGN [YLR335W/NUP2], which protein stability index is on record?
A: 3.02 ± 0.054

Q: For NCVNDVLEFCKDYEAKT [POP1], which protein stability index is on record?
A: 3.45 ± 0.083

Q: With NDAMAGGFTAYGGADYG [RPO21] as the sequence, how does the protein stability index read?
A: 1.91 ± 0.066

Q: With NDDKKTEPDKPAFSFNS [YJL041W/NSP1] as the sequence, how does the protein stability index read?
A: 3.12 ± 0.039

Q: For NDENDDEFYINVDKNLN [RPN14], which protein stability index is on record?
A: 2.72 ± 0.12

Q: Which protein stability index does the source give for NDFNDLNIDWSTTGDNG [MED2] here?
A: 2.86 ± 0.051

Q: With NDGNNRTNNVPMIKAEE [NUT1] as the sequence, how does the protein stability index read?
A: 3.31 ± 0.14

Q: Which protein stability index does the source give for NDIAGQPQALQKSGRPV [RPO21] here?
A: 3.16 ± 0.12

Q: Which protein stability index does the source give for NDITNLQLSKTPLSIKI [SRB8] here?
A: 2.52 ± 0.069

Q: With NDKSEVLKVYSMINNSN [SRB8] as the sequence, how does the protein stability index read?
A: 2.91 ± 0.07

Q: With NDPEILKKIASIPNLFP [SWI1] as the sequence, how does the protein stability index read?
A: 2.19 ± 0.036

Q: For NDWQMLEMLKPCVEDGF [RPB2], which protein stability index is on record?
A: 3.22 ± 0.21

Q: Which protein stability index does the source give for NEETFTVPELEIPTQIY [ARP9] here?
A: 2.77 ± 0.059

Q: With NEIIRSLSDEVMRNEIR [SIR4] as the sequence, how does the protein stability index read?
A: 2.1 ± 0.048

Q: Which protein stability index does the source give for NEKMQLLKDIFANNLKS [SIR4] here?
A: 2.41 ± 0.051

Q: With NELLLPSELNQLKMVNE [RPC82] as the sequence, how does the protein stability index read?
A: 2.94 ± 0.13

Q: With NELTDAIALAVRLGEED [RPN1] as the sequence, how does the protein stability index read?
A: 3.27 ± 0.096

Q: For NENDSQAIITERLVEFS [YIL149C/MLP2], which protein stability index is on record?
A: 3.15 ± 0.085

Q: Which protein stability index does the source give for NENFRLVYDVKGRFAVH [RPS4A] here?
A: 2.55 ± 0.17

Q: With NENNNNSSEKNNNNNNN [MED2] as the sequence, how does the protein stability index read?
A: 2.96 ± 0.065

Q: Which protein stability index does the source give for NENPINKIMTNQINSFW [NUT1] here?
A: 2.66 ± 0.064

Q: For NENRNTGAGVDVNTNAN [SNF11], which protein stability index is on record?
A: 3.42 ± 0.06

Q: Which protein stability index does the source give for NERRKDLAERASELDES [SMC3] here?
A: 2.79 ± 0.06

Q: Which protein stability index does the source give for NESFNRRISSMPGGYFH [YAR002W/NUP60] here?
A: 3.17 ± 0.089

Q: For NEVIDKLKNENTDLKDI [PCI8], which protein stability index is on record?
A: 3.04 ± 0.053

Q: For NFASGDNNTASNMLGSN [RPB3], which protein stability index is on record?
A: 2.98 ± 0.089

Q: Which protein stability index does the source give for NFEYDLSEYDAIQKKDN [YOR098C/NUP1] here?
A: 3.23 ± 0.13

Q: Which protein stability index does the source give for NFILEVFGTIIPKISDY [YJL039C/NUP192] here?
A: 1.68 ± 0.22

Q: For NFIVHSPMLKRIKITAN [GRR1], which protein stability index is on record?
A: 1.2 ± 0.075

Q: With NFLSKIRNINVQDALLT [SNF2] as the sequence, how does the protein stability index read?
A: 1.99 ± 0.054

Q: Which protein stability index does the source give for NFYIQYDPKDGLYKMME [AAR2] here?
A: 2.21 ± 0.14

Q: Which protein stability index does the source give for NGGEDTSVENEGPVANL [REC8] here?
A: 3.45 ± 0.094

Q: Which protein stability index does the source give for NGILPDDELMNWRRLSG [SSN2] here?
A: 2.9 ± 0.073

Q: With NGMFCQVPSSLIVRAKN [RRP4] as the sequence, how does the protein stability index read?
A: 2.5 ± 0.12

Q: With NGQPLNQNFSLTFQPQQ [GRR1] as the sequence, how does the protein stability index read?
A: 3.12 ± 0.047

Q: For NGQYAAFVKDMQVYLVP [RPC37], which protein stability index is on record?
A: 1.52 ± 0.089

Q: With NHFIFNVESAGAMTPEE [RPC40] as the sequence, how does the protein stability index read?
A: 2.02 ± 0.061

Q: With NHKIIARVKAFDRHCNM [SMD2] as the sequence, how does the protein stability index read?
A: 1.72 ± 0.08

Q: For NHPELQGITRNVVNYLS [RPC17], which protein stability index is on record?
A: 1.83 ± 0.061

Q: Which protein stability index does the source give for NHSNNDIPTIADEHFWA [BRN1] here?
A: 3.11 ± 0.077

Q: With NHVKQFYERLDKSTTQL [MED11] as the sequence, how does the protein stability index read?
A: 2.64 ± 0.081

Q: Which protein stability index does the source give for NHVMPLKPVDKLKPMNI [SIN4] here?
A: 2.93 ± 0.083

Q: Which protein stability index does the source give for NIDSLKFNELVKLMKNI [BRR2] here?
A: 1.63 ± 0.067

Q: For NIGTPSFNMAQIPQQLY [SNF5], which protein stability index is on record?
A: 2.08 ± 0.072

Q: For NIIESIANFSRAGKYEL [YJR042W/NUP85], which protein stability index is on record?
A: 2.96 ± 0.086

Q: For NIKNTNEEATPIPSSET [RRP6], which protein stability index is on record?
A: 2.98 ± 0.052

Q: For NILFSLWKLLSTVKVSD [YLR018C/POM34], which protein stability index is on record?
A: 1.46 ± 0.058

Q: For NINNSSVAEKEEIRSQI [SWI3], which protein stability index is on record?
A: 2.19 ± 0.077

Q: For NISNNLQKALTVKTNDE [RPN8], which protein stability index is on record?
A: 3 ± 0.11

Q: Which protein stability index does the source give for NISTNTNIHEPQYINYS [SSN2] here?
A: 2.98 ± 0.078

Q: With NIYDQLRNKLIESNKLA [RRP6] as the sequence, how does the protein stability index read?
A: 2.45 ± 0.084

Q: For NKEMETQRIMTNVIAFA [YLR018C/POM34], which protein stability index is on record?
A: 2.46 ± 0.07

Q: With NKGAKAEDVALNEQVKK [NAS6] as the sequence, how does the protein stability index read?
A: 2.96 ± 0.19

Q: For NKGRAVYINPSGEKIDF [BRR2], which protein stability index is on record?
A: 2.76 ± 0.1

Q: Which protein stability index does the source give for NKLEKLNSLLTYIKSEI [SMC4] here?
A: 2.32 ± 0.045
